Measured values as given in patent US10398755B2, “Clusterin pharmaceuticals and treatment methods using the same” (UNIVERSITY OF SOUTHERN CALIFORNIA, priority 2009, dated 2019).

Test system: MMP-9
Assay: MMP inhibition assay (FRET peptide substrate), APMA-activated pro-MMP-9
Assay type: biochemical
Procedure: Pro-MMP-9 (A) or pro-MMP-2 (C) was incubated with PBS, CLU (50 μg/ml, or 0.63 μM), SB3-CT (2 μM), or BSA (50 μg/ml), and MMP FRET substrate peptides in the presence and absence of […] APMA at RT for 3 h. RFU, relative fluorescence unit, was obtained by considering the read out in PBS as 100%. Each reaction was performed in triplicate. Standard errors were depicted as a bar in each graph. Differences between values of PBS and CLU or SB-3CT reactions were statistically significant by Student t-test: *P=0.0004, **P=0.0001, +P=0.0003, and ++P=0.01. Gelatin zymography was performed with the samples pooled from each reaction set. Pro-MMPs, processed MMPs (MMP-9 or MMP-2), and C-terminal truncated, processed MMP-9 (MMP-9-ΔC) were indicated by arrows. (B) Dose-dependent inhibition of MMP-9 by CLU or SB-3CT was performed in the same condition. MMPs were mixed with CLD in TSCB buffer, 50 mM Tris-HCI, pH, 7.5, 150 mM NaCl, 5 mM CaCl2, 0.002% Brij35 (or otherwise indicated concentration) 30 min prior to substrate addition, and incubated for 3 h at RT in the presence or absence of 0.02 mM p-aminophenylmercuric acetate (APMA). MMP activity was measured using a 5-FAM/QXL520 fluorescence resonance energy transfer (FRET) peptide as a substrate (EXlEm=490 nm/520 nm) (AnaSpec, Fremont, Calif.), according to the manufacturer's protocol. Relative fluorescence unit (RFU) was obtained by subtracting the values of APMA- or enzyme-omitted reactions from those of test samples, and then considering the fluorescence unit of a PBS (vehicle) sample as 100%. Enzyme reactions were performed in black 96-well plate, containing combinations of 10 ng, 5 ng, 5 ng, 10 ng, 2.5 μg, 2.5 μg of MMP-2, MMP-7, catalytic domain of MMP-9, MMP-9, CCLU, and/or BSA, respectively, in 50 μl reaction volume. As MMP substrates (0.4 μM), 520 MMP FRET substrate […] (SEQ ID NO: 9), was used for MMP-2 and MMP-9, and 520 MMP FRET substrate XIV, […] (SEQ ID NO: 10), used for MMP-7 reactions, both of which were purchased from AnaSpec (Fremont, Calif.). Recombinant proteins such as mouse CLU with C-terminal (His)6 (CLU-His), MMP-2, and MMP-7 were purchased from R&D Systems (Minneapolis, Minn.), MMP-9 was purchase from Ana-Spec, Inc. (San Jose, Calif.). The recombinant catalytic domain of human MMP-9 (residue 112-445) was purchased from ProtEra (Sesto Fiorentino, Italy). A gelatinase-specific synthetic inhibitor, SB-3CT, was obtained from Biomol International (Plymouth Meeting, Pa.). Fluorescence was monitored using a Victor^3TM V multilabel counter (PerkinElmer). For the gelatin digestion, a 50 μl mixture of gelatin (20 μg) and CLU (2 μg) was incubated with or without active MMP-9 (70 ng) for 2 hours at 37° C. The reaction products were run on a 12% denaturing SDS/PAGE gel for Coomasie staining. […] To determine whether MMP-9/CLU interaction affects the cleavage process of the propeptide of MMP-9 and/or interferes with enzymatic activity of the processed active enzyme, we performed an in vitro MMP-9 inhibition assay, by adopting FRET assay using a fluorescence-quenched peptide substrate (FIG. 3A). […] We incubated pro-MMP-9 with PBS, CLU, SB-3CT, or BSA, and a fluorescence peptide substrate in the presence or absence of APMA. […] We monitored the change in fluorescence value during the incubation of the reactions up to 3 h, which reflects the enzymatic activity of APMA-activated MMPs. […] At 3 h post incubation, the activity difference was read and reaction products were resolved by gelatin zymography. […]

B1: CLU: secreted disulfide-linked heterodimeric glycoprotein (70-80 KD); assays used recombinant mouse CLU with C-terminal (His)6 (protein, UniProt Q06890 22-448, looked up)
Clusterin: EQEVSDNELQELSTQGSRYINKEIQNAVQGVKHIKTLIEKTNAERKSLLNSLEEAKKKKEDALEDTRDSEMKLKAFPEVCNETMMALWEECKPCLKHTCMKFYARVCRSGSGLVGQQLEEFLNQSSPFYFWMNGDRIDSLLESDRQQSQVLDAMQDSFARASGIIDTLFQDRFFARELHDPHYFSPIGFPHKRPHFLYPKSRLVRSLMSPSHYGPPSFHNMFQPFFEMIHQAQQAMDVQLHSPAFQFPDVDFLREGEDDRTVCKEIRRNSTGCLKMKGQCEKCQEILSVDCSTNNPAQANLRQELNDSLQVAERLTEQYKELLQSFQSKMLNTSSLLEQLNDQFNWVSQLANLTQGEDKYYLRVSTVTTHSSDSEVPSRVTEVVVKLFDSDPITVVLPEEVSKDNPKFMDTVAEKALQEYRRKSRAE
modifications: C-terminal His6 tag
average inhibition of MMP-9, three independent experiments in triplicate (50 μg/ml of CLU, p=0.002): 35%
effect on APMA-induced processing of pro-MMP-9 (zymography) (APMA-treated reactions): did not affect the enzyme processing by APMA
inhibition of the activity of MMP-9 (CLU 50 μg/ml (0.63 μM), APMA, RT 3 h, 0.002% Brij 35, compared with PBS and BSA): 28%
dose-dependent inhibition of MMP-9, comparison with SB-3CT (FIG. 3B): stronger MMP-9 inhibitor than a synthetic gelatinase inhibitor, SB-3CT
MMP-9 inhibition at high detergent concentration (pro-MMP-9 or APMA-activated MMP-9, 0.04% Brij 35 or NP-40): little MMP-9 inhibition
